The values that follow are results of earlier work, collected in publication PMC3413252.

Data set [1] concerns the target surface IL6 receptor (UniProt P08887).
Data set [2] has as its target soluble IL6 receptor (UniProt P08887).

Chain of IL6 (P05231 30-212): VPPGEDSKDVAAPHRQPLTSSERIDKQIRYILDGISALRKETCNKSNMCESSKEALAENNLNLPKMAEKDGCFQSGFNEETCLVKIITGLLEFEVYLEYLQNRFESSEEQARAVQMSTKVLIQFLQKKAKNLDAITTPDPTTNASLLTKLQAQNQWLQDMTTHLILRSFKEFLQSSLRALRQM

Turning to IL6 (from UniProt P05231), the Kd is 0.1 nM in data set [1] and 30 nM in data set [2].
